Assay results reported in patent US20090197798A1 (NATIONAL TAIWAN UNIVERSITY, published 2009).
Bridges are numbered along the chain shown (N, C = ends). Where no end group is shown, it is not given here.

Tests used:
VEGFR2 = target: T1, VEGFR2 (UniProt P35968 20-764, limits assumed); test: SPR (Biacore), receptor immobilized on sensor chip
T1 construct: also called Flk-1/KDR

[1] = target: T2, Recombinant soluble NRP1 (sNRP1) protein containing His6 and c-Myc domain tags (human, UniProt O14786-2 22-644, limits assumed); test: SPR (Biacore), NRP1 immobilized on CM5 chip, peptide injected, 25 C
T2 construct: Expressed in NIH-3T3 cells, purified from conditioned medium by ammonium sulfate precipitation and Ni-NTA; also called recombinant human sNRP1; recombinant NRP1; not shown: His6 and c-Myc tags
T2 sequence (looked up): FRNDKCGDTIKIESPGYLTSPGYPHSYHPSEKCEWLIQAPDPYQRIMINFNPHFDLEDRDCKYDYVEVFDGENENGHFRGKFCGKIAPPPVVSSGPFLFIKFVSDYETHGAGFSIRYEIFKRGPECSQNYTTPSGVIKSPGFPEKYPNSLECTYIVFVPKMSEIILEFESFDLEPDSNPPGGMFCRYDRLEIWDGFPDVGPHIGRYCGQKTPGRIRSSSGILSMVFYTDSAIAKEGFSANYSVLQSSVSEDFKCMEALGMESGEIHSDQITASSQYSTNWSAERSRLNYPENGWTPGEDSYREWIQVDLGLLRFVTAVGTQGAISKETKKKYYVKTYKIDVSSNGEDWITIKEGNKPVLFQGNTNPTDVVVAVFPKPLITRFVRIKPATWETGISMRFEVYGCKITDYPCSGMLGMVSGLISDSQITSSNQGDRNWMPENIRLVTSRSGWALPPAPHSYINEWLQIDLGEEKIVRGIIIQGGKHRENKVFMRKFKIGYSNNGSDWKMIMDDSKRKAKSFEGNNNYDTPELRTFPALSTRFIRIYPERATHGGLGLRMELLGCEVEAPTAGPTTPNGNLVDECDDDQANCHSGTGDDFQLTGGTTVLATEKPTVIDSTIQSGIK
Description: The binding kinetics of selected peptides with NRP1 were tested using the surface plasmon resonance based measuring system (Biacore AB) at 25° C. Recombinant NRP1 was immobilized on CM5 sensor chips by amine coupling at 400 response units using the amine coupling kit (Biacore) according to the manufacturer's instructions. Binding was detected in resonance units after injecting various concentrations of peptide at a flow rate of 30 μL/min. Sensograms of association and dissociation were recorded and analyzed using BIAevaluation software 3.0 (Biacore AB).
To identify whether any new signature motif can bind and inhibit NRP1-mediated invasion, mammalian cell-expressed NRP1 proteins were used as bait to screen a random cyclic 7-mer peptide library for NRP1-binding peptides. A Ph.D. C7C phage display library containing 10¹¹ random cyclic 7-amino acid peptides was applied for biopanning. After four rounds of screening, 63 clones were isolated. […] A consensus motif, -RRXR-, was found in nine clones by MULTALIN program alignment (Table 3). […] Surface plasmon resonance was used to measure the real-time association and dissociation of the binding of RRXR-containing peptides to NRP1. […] The slightly higher binding affinity of DG1 to NRP1 was due to a more favorable kₐ.

[2] = target: T2, Recombinant soluble NRP1 (sNRP1) …; test: SPR

T1 sequence (P35968 20-764 limits assumed): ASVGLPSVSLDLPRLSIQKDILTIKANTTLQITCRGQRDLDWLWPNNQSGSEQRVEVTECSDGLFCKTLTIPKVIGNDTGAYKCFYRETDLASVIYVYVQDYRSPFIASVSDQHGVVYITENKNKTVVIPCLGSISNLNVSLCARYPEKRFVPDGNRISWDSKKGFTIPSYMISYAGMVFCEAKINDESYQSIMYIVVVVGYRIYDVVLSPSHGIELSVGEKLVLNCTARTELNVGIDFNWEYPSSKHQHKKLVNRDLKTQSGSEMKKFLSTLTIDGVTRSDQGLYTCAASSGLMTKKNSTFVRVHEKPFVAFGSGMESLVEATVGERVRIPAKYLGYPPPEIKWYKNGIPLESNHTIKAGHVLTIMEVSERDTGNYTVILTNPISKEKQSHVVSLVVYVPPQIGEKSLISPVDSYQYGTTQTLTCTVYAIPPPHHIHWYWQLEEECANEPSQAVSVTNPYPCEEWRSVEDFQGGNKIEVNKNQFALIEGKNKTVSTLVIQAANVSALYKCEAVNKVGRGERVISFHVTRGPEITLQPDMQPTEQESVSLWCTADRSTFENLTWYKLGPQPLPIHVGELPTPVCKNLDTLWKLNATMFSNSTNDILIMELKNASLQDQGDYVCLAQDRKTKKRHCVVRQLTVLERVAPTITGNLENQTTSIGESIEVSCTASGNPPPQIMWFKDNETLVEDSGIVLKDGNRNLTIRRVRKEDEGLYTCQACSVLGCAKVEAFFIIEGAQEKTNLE

B1: cyclic peptide DG1 (CRRPRMLTC) (peptide)
peptide: CRRPRMLTC
modifications: disulfide 1-9 (inferred)
notes: Chemically synthesized cyclic 9-mer (Digitalgene, Taiwan); Its core matches phage clone 4-1
B1 was tested, and the binding result (VEGFR2) was “no binding”, the Kd [1] was 1400 nM and the koff [1] was 0.00172 s⁻¹. For the same binder, the kon [1] was 1230 M⁻¹ s⁻¹.

B2: Human VEGF165 (ligand, UniProt P15692-4 27-191, looked up)
chain: APMAEGGGQNHHEVVKFMDVYQRSYCHPIETLVDIFQEYPDEIEYIFKPSCVPLMRCGGCCNDEGLECVPTEESNITMQIMRIKPHQGQHIGEMSFLQHNKCECRPKKDRARQENPCGPCSERRKHLFVQDPQTCKCSCKNTDSRCKARQLELNERTCRCDKPRR
notes: Bought from PeproTech; also called hVEGF
In the case of B2, the Kd [2] is reported as 125 nM.

B3: cyclic peptide DG2 (CRSRRIRLC) (peptide)
peptide: CRSRRIRLC
modifications: disulfide 1-9 (inferred)
notes: Chemically synthesized cyclic 9-mer (Digitalgene, Taiwan); Its core matches phage clone 4-5
B3 was tested, and the binding result (VEGFR2) was “no binding”, the Kd [1] was 5370 nM and the koff [1] was 0.000663 s⁻¹. The kon [1] was 123 M⁻¹ s⁻¹.
